Data: paper PMC2441640

Assays:
[1] = target: ORF3 protein fused to enhanced cyan fluorescent protein (ECFP-ORF3) (hepatitis E virus); experiment: FRET or BRET
[2] = target: Pyst1 fused to enhanced yellow fluorescent protein (EYFP-Pyst1) (UniProt Q16828); experiment: FRET or BRET
UniProt Q16828, sequence (Q16828 whole entry, the tested form may be a part): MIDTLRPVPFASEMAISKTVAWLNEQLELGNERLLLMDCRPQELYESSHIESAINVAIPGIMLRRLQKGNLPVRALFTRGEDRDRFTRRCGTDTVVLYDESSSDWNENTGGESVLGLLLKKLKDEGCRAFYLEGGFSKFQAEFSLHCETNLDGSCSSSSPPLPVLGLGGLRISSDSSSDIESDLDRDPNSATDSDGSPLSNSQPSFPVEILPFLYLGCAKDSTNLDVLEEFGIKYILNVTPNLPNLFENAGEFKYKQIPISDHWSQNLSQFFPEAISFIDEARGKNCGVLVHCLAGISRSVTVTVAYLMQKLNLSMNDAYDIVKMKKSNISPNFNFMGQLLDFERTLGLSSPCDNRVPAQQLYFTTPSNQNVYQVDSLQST

## ORF3 protein fused to enhanced cyan fluorescent protein (ECFP-ORF3) (natural protein)
[1]
  percent FRET efficiency (region of colocalization): 26.4%
[2]
  percent FRET efficiency (region of colocalization): 27.8%
